This note sets out measurements from patent publication US20230310629A1 (Merck KGaA, published 2023).

The target of assay [1] is T1, fragment of human MUC1 immunodominant core peptide (APDTRPAPGSTAPPA) (human).
T1 construct: also called MUC1 peptide; human MUC1 truncated peptide
T1 peptide: APDTRPAPGSTAPPA
Kind of assay: co-crystallisation, X-ray structure.

Assay [2] concerns the target T2, biotinylated synthetic VNTR peptide of MUC1 (APDTRPAPGSTAPPAC-biotin) (human).
T2 construct: also called human MUC1-VNTR peptide
T2 peptide: APDTRPAPGSTAPPAC-biotin
The experiment in a line: Biacore, human MUC1-VNTR; kd1. (SPR reads the build-up and loss of mass on a sensor chip optically.)

Assay [3] concerns the target T2, biotinylated synthetic VNTR peptide of …. Kind of assay: Biacore, human MUC1-VNTR peptide.
Assay [4] shares this target. The experiment in a line: Biacore, human MUC1-VNTR; ka1.

By koff is commonly meant the rate constant with which the complex falls apart. The low end stands for slow dissociation, the high end for fast dissociation. The Kd is a measure of binding affinity in units of concentration. Read a high Kd as lower affinity. What is called kon is the rate constant with which the complex forms.

Where no end group is shown, it is not given here.

B1: H02-scFv, the MUC1-binding arm of Molecule 1 (scFv)
scFv: QMQLVQSEAELKKPGASVKVSCKASGYSFTSHFMHWVRQAPGQGLEWMGWIDPVTGGTKYAQNFQGWVTMTRDTSIRTAYLELSRLRSDDTAMYYCAREARADRGQFDKWGQGTLVTVASGGGGSGGGGSGGGGSQSVLTQPPSVSVAPGKTARITCGGNNIGSKSVHWYQQKPGQAPALVIYYGSNRPSGIPERFSGSNSGNTATLTISRVEAGDEADYYCQVWDSSSDWVFGGGTKLTVL
In the case of B1, the binding result in assay [1] was “binds”.

B2: 1993-H02 with an HT186-D11 light chain (anti-MUC1 antibody H02) (antibody, V domains shown)
VH: QMQLVQSEAELKKPGASVKVSCKASGYSFTSHFMHWVRQAPGQGLEWMGWIDPVTGGTKYAQNFQGWVTMTRDTSIRTAYLELSRLRSDDTAMYYCAREARADRGQFDKWGQGTLVTVAS
VL: QSVLTQPPSVSVAPGKTARITCGGNNIGSKSVHWYQQKPGQAPALVIYYGSNRPSGIPERFSGSNSGNTATLTISRVEAGDEADYYCQVWDSSSDWVFGGGTKLTVL
notes: One molecule is used here for both experiments
In assay [2], B2 displayed an off-rate constant (koff) of 0.0017 s⁻¹. This molecule showed a dissociation constant (Kd) in assay [3] of 901 pM. In assay [4], this molecule registered a kon of 126000 M⁻¹ s⁻¹.
